Tests used:
[1] = biological target: human IL-8 (human) (UniProt P10145); assay: homogeneous immuno-SDA with tether oligonucleotide, 100 pM IL-8 in binding mixture, 1 nM Ab1-SA-TO plus RHP-3 with 1 nM Ab2-P2 (G265-5-LHP-3)
[2] = biological target: human IL-8 (human) (UniProt P10145); assay: homogeneous immuno-SDA with reversed probe RBD-3v3, 0.25 pM IL-8 in binding mixture, 20 pM Ab1-SA-P1 with 100 pM Ab2-P2 (G265-5-LHP-3), 50 nM blocker RDB-3z8
[3] = biological target: human IL-8 (human) (UniProt P10145); assay: homogeneous immuno-SDA with reversed probe RBD-3v3, 1.0 pM IL-8 in binding mixture, 20 pM Ab1-SA-P1 with 100 pM Ab2-P2 (G265-5-LHP-3), 50 nM blocker RDB-3z8
[4] = biological target: human IL-8 (human) (UniProt P10145); assay: homogeneous immuno-SDA, 1,000 pM IL-8 in binding mixture, 1 nM Ab1-SA-P1 with 1 nM Ab2-P2 (G265-5-LHP-3) as second proximity member
[5] = biological target: human IL-8 (human) (UniProt P10145); assay: homogeneous immuno-SDA, 100 pM IL-8 in binding mixture, 1 nM Ab1-SA-P1 with 1 nM Ab2-P2 (G265-5-LHP-3) as second proximity member
[6] = biological target: human IL-8 (human) (UniProt P10145); assay: homogeneous immuno-SDA with tether oligonucleotide, 10 pM IL-8 in binding mixture, 1 nM Ab1-SA-TO plus RHP-3 with 1 nM Ab2-P2 (G265-5-LHP-3)
[7] = biological target: human IL-8 (human) (UniProt P10145); assay: homogeneous immuno-SDA, 10 pM IL-8 in binding mixture, 1 nM Ab1-SA-P1 with 1 nM Ab2-P2 (G265-5-LHP-3) as second proximity member; signal needs both antibodies on IL-8
[8] = biological target: human IL-8 (human) (UniProt P10145); assay: homogeneous immuno-SDA with reversed probe RBD-3v3, 0.5 pM IL-8 in binding mixture, 20 pM Ab1-SA-P1 with 100 pM Ab2-P2 (G265-5-LHP-3), 50 nM blocker RDB-3z8
[9] = biological target: human IL-8 (human) (UniProt P10145); assay: homogeneous immuno-SDA with reversed probe RBD-3v3, 0.1 pM IL-8 in binding mixture, 20 pM Ab1-SA-P1 with 100 pM Ab2-P2 (G265-5-LHP-3), 50 nM blocker RDB-3z8

human IL-8 (human), sequence (P10145 28-99 limits assumed): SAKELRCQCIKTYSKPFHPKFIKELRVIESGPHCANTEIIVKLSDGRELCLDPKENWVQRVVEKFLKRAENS
MAb G265-8 (BD Bioscience Pharmingen), directed against human IL-8, covalently coupled to streptavidin (anti-IL-8 IgG-SA conjugate), sequence (P22629 37-163): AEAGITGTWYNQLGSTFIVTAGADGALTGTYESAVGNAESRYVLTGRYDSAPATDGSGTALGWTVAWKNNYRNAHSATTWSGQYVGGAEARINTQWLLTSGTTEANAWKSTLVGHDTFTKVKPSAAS

An Average MOTA (n = 6) [1] of 32200, an Average MOTA (n = 4) [2] of 81600 and an Average MOTA (n = 4) [3] of 129000 were found for “MAb G265-8 (BD Bioscience Pharmingen), directed against human IL-8, covalently coupled to streptavidin (anti-IL-8 IgG-SA conjugate) (from UniProt P22629 37-163) (antibody)” in this work. It also gave an Average MOTA (n = 6) [4] of 129000, an Average MOTA (n = 6) [5] of 73900 and an Average MOTA (n = 6) [6] of 505. It also gave an Average MOTA (n = 6) [7] of 3980, an Average MOTA (n = 4) [8] of 118000 and an Average MOTA (n = 4) [9] of 23100.
